Source: PMC7289602, “Measuring ligand-cell surface receptor affinities with axial line-scanning fluorescence correlation spectroscopy” (eLife, 2020)

Assays:
[1] = molecular target: LRP6-mCherry, stably expressed in NCI-H1703 cells (human) (UniProt O75581); test: dual-color axial line-scanning fluorescence cross-correlation spectroscopy (axial lsFCS); two receptors in the plasma membrane of live NCI-H1703 cells stably expressing LRP6-mCherry and transiently xKremen2-eGFP; fractions that co-diffuse from the ratios of cross- and autocorrelation amplitudes
Chain of LRP6-mCherry, stably expressed in NCI-H1703 cells (human) (O75581 20-1613): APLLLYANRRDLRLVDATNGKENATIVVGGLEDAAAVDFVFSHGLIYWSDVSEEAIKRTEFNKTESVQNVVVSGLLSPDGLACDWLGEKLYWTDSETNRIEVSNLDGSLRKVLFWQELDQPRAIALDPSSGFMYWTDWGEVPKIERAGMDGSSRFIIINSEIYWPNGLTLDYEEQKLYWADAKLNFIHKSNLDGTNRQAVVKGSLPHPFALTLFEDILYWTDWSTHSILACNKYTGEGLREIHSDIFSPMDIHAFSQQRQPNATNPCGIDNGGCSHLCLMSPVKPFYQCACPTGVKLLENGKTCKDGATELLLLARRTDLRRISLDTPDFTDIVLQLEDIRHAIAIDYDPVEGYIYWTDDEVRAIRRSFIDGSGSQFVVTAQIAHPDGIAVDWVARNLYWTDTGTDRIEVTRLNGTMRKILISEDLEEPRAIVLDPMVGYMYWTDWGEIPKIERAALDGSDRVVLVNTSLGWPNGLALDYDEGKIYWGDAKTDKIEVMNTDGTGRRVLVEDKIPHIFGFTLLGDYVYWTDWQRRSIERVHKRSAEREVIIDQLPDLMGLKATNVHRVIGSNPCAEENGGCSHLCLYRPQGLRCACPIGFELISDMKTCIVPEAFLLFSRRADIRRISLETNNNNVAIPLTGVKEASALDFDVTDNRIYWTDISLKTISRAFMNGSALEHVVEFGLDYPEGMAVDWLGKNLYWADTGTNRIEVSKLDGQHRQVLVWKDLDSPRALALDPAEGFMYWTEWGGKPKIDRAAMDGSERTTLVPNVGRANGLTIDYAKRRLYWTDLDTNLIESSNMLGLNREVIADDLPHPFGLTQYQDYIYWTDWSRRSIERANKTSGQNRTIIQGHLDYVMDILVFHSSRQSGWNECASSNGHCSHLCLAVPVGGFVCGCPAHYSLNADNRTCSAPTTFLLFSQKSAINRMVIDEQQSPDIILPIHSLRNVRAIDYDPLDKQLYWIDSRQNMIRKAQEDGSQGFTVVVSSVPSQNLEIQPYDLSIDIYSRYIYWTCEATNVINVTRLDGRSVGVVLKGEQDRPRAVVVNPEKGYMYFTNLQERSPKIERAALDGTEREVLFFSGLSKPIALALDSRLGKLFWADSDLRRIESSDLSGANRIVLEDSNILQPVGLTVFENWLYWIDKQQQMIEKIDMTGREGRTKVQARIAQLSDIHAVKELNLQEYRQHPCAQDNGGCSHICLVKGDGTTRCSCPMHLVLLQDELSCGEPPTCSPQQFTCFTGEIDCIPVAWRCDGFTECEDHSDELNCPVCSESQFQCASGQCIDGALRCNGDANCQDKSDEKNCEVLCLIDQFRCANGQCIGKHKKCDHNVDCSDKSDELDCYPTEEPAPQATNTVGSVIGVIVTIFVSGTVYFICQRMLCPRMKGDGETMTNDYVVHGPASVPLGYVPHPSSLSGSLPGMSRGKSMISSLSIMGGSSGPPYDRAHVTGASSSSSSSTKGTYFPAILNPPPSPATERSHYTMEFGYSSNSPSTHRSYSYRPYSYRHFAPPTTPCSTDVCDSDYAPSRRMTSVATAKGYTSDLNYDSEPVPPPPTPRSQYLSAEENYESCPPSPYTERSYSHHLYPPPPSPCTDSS

[2] = molecular target: T1, LRP6-mCherry, stably expressed in NCI-H1703 cells (human, UniProt O75581 20-1613); test: dual-color axial line-scanning fluorescence cross-correlation spectroscopy (axial lsFCS); live NCI-H1703 cells stably expressing LRP6-mCherry, ligand in conditioned medium at varied concentrations, 37°C, 5% CO2, 60 s scans, with background and photobleaching correction, fit of Γ(CL) with Equation 5; conditions: partners not purified
T1 construct: lipoprotein-receptor related protein 6 (LRP6), human; the ORF of the hLRP6-mCherry fusion inserted into pEF1a-IRES-Neo; Same fusion ORF as m4 and m5; receptor density 45 ± 23 per µm^2; also called hLRP6-mCherry; exogenous LRP6-mCherry; source: NCI-H1703, stably transfected clonal line (pEF1a-hLRP6-mCherry-IRES-Neo, G418 selection), on live cells; not shown: mCherry, C-terminal, kept
T1 sequence (O75581 20-1613): as above

[3] = molecular target: T2, LRP6-mCherry, transiently expressed in NCI-H1703 cells (human, UniProt O75581 20-1613); test: dual-color axial line-scanning fluorescence cross-correlation spectroscopy (axial lsFCS); live NCI-H1703 cells transiently expressing the receptor (xKremen2-mCherry without or with unlabeled LRP6; apparent affinity with LRP6), ligand in conditioned medium at varied concentrations, 37°C, 5% CO2, 60 s scans, fit of Γ(CL) with Equation 5; conditions: partners not purified
T2 construct: lipoprotein-receptor related protein 6 (LRP6), human; plasmid pCS2+hLRP6-mCherry (Dörlich et al., 2015); Same construct as m4 in another cell line; receptor density 140 ± 80 per µm^2; also called hLRP6-mCherry; source: NCI-H1703, transiently transfected (pCS2+hLRP6-mCherry, with MesD 1:6), on live cells; not shown: mCherry, C-terminal, kept
T2 sequence (O75581 20-1613): as above

[4] = molecular target: T1, LRP6-mCherry, stably expressed in …; test: dual-color axial line-scanning fluorescence cross-correlation spectroscopy (axial lsFCS); the same data as a3 (NCI-H1703 stably expressing LRP6-mCherry), analysed without prior background correction of the intensity time traces; conditions: partners not purified
[5] = molecular target: T3, LRP6-mCherry, transiently expressed in HEK293T cells (human, UniProt O75581 20-1613); test: dual-color axial line-scanning fluorescence cross-correlation spectroscopy (axial lsFCS); live HEK293T cells transiently expressing the receptor, ligand in conditioned medium at varied concentrations (0.01-220 nM), 37°C, 5% CO2, 60 s scans, fit of Γ(CL) with Equation 5; conditions: partners not purified
T3 construct: lipoprotein-receptor related protein 6 (LRP6), human; plasmid pCS2+hLRP6-mCherry (Dörlich et al., 2015); Receptor density 370 ± 150 or 1080 ± 470 per µm^2 in the two series; MesD was co-transfected; also called hLRP6-mCherry; lipoprotein-receptor related protein 6; source: HEK293T, transiently transfected (pCS2+hLRP6-mCherry, with MesD 1:6), on live cells; not shown: mCherry, C-terminal, kept
T3 sequence (O75581 20-1613): as above

[6] = molecular target: (Xenopus laevis) xKremen2-mCherry (Xenopus laevis); test: dual-color axial line-scanning fluorescence cross-correlation spectroscopy (axial lsFCS); live NCI-H1703 cells transiently expressing the receptor (xKremen2-mCherry without or with unlabeled LRP6; apparent affinity with LRP6), ligand in conditioned medium at varied concentrations, 37°C, 5% CO2, 60 s scans, fit of Γ(CL) with Equation 5
[7] = molecular target: xKremen2-mCherry co-expressed with unlabeled LRP6 (Xenopus laevis | human) (UniProt O75581); test: as above
[8] = molecular target: T4, LRP6-tdTomato, transiently expressed in NCI-H1703 cells (human, UniProt O75581 20-1613); test: as above; conditions: partners not purified
T4 construct: lipoprotein-receptor related protein 6 (LRP6), human; pCS2+hLRP6-tdTomato, made by replacing the mCherry ORF of pCS2+hLRP6-mCherry; Receptor density 106 ± 52 per µm^2; also called hLRP6-tdTomato; source: NCI-H1703, transiently transfected (pCS2+hLRP6-tdTomato, with MesD 1:6), on live cells; not shown: tdTomato, C-terminal, kept
T4 sequence (O75581 20-1613): as above

[9] = molecular target: T5, endogenously tagged LRP6-mCherry in CRISPR/Cas9 edited NCI-H1703 cells (human (endogenous in NCI-H1703), UniProt O75581 20-1613); test: dual-color axial line-scanning fluorescence cross-correlation spectroscopy (axial lsFCS); live CRISPR/Cas9 edited NCI-H1703 cells with endogenously tagged LRP6, ligand in conditioned medium at varied concentrations, 37°C, 5% CO2, 60 s scans, fit of Γ(CL) with Equation 5; conditions: partners not purified
T5 construct: lipoprotein-receptor related protein 6 (LRP6), human, expressed from the endogenous locus of NCI-H1703 cells; Untagged LRP6 from the unedited allele is also present; receptor density 18 ± 9 per µm^2; source: NCI-H1703, CRISPR/Cas9 edited at the endogenous LRP6 locus (exon 23), heterozygous clone, on live cells
T5 sequence (O75581 20-1613): as above

[10] = molecular target: T6, endogenously tagged LRP6-tdTomato in CRISPR/Cas9 edited NCI-H1703 cells (human (endogenous in NCI-H1703), UniProt O75581 20-1613); test: as above; conditions: partners not purified
T6 construct: lipoprotein-receptor related protein 6 (LRP6), human, expressed from the endogenous locus of NCI-H1703 cells; Untagged LRP6 from the unedited allele is also present; receptor density 21 ± 15 per µm^2; source: NCI-H1703, CRISPR/Cas9 edited at the endogenous LRP6 locus (exon 23), heterozygous clone, on live cells; not shown: tdTomato (after the linker AS from the NheI site), C-terminal, kept
T6 sequence (O75581 20-1613): as above

[11] = molecular target: T3, LRP6-mCherry, transiently expressed in …; test: time-lapse spinning disk confocal imaging of ligand fluorescence on the cell membrane; dissociation after two washing steps, frames every 300 s for up to 3 hr, average of 50 cells; kon from a regression of apparent rate coefficients at 3.5 and 7 nM with this koff fixed; 37°C, 5% CO2; conditions: partners not purified
[12] = molecular target: T3, LRP6-mCherry, transiently expressed in …; test: time-lapse spinning disk confocal imaging of ligand fluorescence on the cell membrane; association: HEK293T cells expressing LRP6-mCherry, conditioned medium with DKK1-eGFP at different concentrations, 37°C, 5% CO2, frames every 100 s for 1 hr, linear regression of apparent rate coefficients; the authors call such measurements on individual cells highly unreliable; conditions: partners not purified
[13] = molecular target: T1, LRP6-mCherry, stably expressed in …; test: dual-color axial line-scanning fluorescence cross-correlation spectroscopy (axial lsFCS); live NCI-H1703 cells stably expressing LRP6-mCherry, ligand in conditioned medium at varied concentrations, 37°C, 5% CO2, 60 s scans, with background and photobleaching correction, fit of Γ(CL) with Equation 5; conditions: partners not purified; remark: listed apart in the source

“(Xenopus laevis) xKremen2-eGFP (receptor)” was tested. Which bound fraction of LRP6 receptors FR, corrected assuming an eGFP maturation yield of 0.9 [1] did it give?
Its bound fraction of LRP6 receptors FR, corrected assuming an eGFP maturation yield of 0.9 is 0.26.

What about the bound fraction of xKremen2 receptors FG, corrected assuming an mCherry maturation yield of 0.5 [1] of the same molecule?
Its bound fraction of xKremen2 receptors FG, corrected assuming an mCherry maturation yield of 0.5 is 0.18.

What about the percent of LRP6 receptors co-diffusing with xKremen2 [1] of the same molecule?
Its percent of LRP6 receptors co-diffusing with xKremen2 is 25%.

And the percent of xKremen2 receptors co-diffusing with LRP6 [1]?
The percent of xKremen2 receptors co-diffusing with LRP6 was 15%.

B1: human Dickkopf1 fused to eGFP (DKK1-eGFP) (ligand, UniProt O94907 32-266, looked up)
chain: TLNSVLNSNAIKNLPPPLGGAAGHPGSAVSAAPGILYPGGNKYQTIDNYQPYPCAEDEECGTDEYCASPTRGGDAGVQICLACRKRRKRCMRHAMCCPGNYCKNGICVSSDQNHFRGEIEETITESFGNDHSTLDGYSRRTTLSSKMYHTKGQEGSVCLRSSDCASGLCCARHFWSKICKPVLKEGQVCTKHRRKGSHGLEIFQRCYCGEGLSCRIQKDHHQASNSSRLHTCQRH
notes: Dickkopf1 (DKK1), human; also called hDKK1-eGFP
Which Kd [2] does the source give for B1 here?
The Kd was 0.08 ± 0.01 nM.

What about the Kd [3] of the same molecule?
Its Kd is 0.22 ± 0.02 nM.

And the Kd [4]?
The Kd was 0.1 ± 0.02 nM.

And the Kd [5]?
Its Kd is 0.49 ± 0.09 nM.

What about the Kd [6] of the same molecule?
The Kd was 10.3 nM.

What about the Kd [7] of the same molecule?
The Kd was 0.54 nM.

What about the Kd [8] of the same molecule?
The Kd was 0.22 ± 0.03 nM.

What about the Kd [9] of the same molecule?
The Kd was 0.09 ± 0.01 nM.

What about the Kd [10] of the same molecule?
Its Kd is 0.1 ± 0.02 nM.

What about the Kd [11] of the same molecule?
The Kd was 0.4 ± 0.1 nM.

And the koff [11]?
Its koff is 0.00026 s⁻¹.

And the kon [11]?
Its kon is 670000 M⁻¹ s⁻¹.

And the Kd [12]?
Its Kd is 2.6 ± 0.1 nM.

And the koff [12]?
Its koff is 0.0013 s⁻¹.

What about the kon [12] of the same molecule?
Its kon is 500000 M⁻¹ s⁻¹.

B2: human Dickkopf1 fused to eGFP and a SNAP-tag domain (DKK1-eGFP-SNAP) (ligand, UniProt O94907 32-266, looked up)
chain: B1 chain
notes: Dickkopf1 (DKK1), human; made from pCS2+hDKK1-eGFP by adding a linker and the SNAP-tag gene; SNAP-tag domain is 19.4 kDa; also called hDKK1-eGFP-SNAP; source: conditioned medium
With B2 as the molecule, how does the Kd [5] read?
Its Kd is 0.46 ± 0.09 nM.

B3: human Dickkopf2 fused to eGFP (DKK2-eGFP) (ligand, UniProt Q9UBU2 34-259, looked up)
chain: KLNSIKSSLGGETPGQAANRSAGMYQGLAFGGSKKGKNLGQAYPCSSDKECEVGRYCHSPHQGSSACMVCRRKKKRCHRDGMCCPSTRCNNGICIPVTESILTPHIPALDGTRHRDRNHGHYSNHDLGWQNLGRPHTKMSHIKGHEGDPCLRSSDCIEGFCCARHFWTKICKPVLHQGEVCTKQRKKGSHGLEIFQRCDCAKGLSCKVWKDATYSSKARLHVCQKI
notes: Dickkopf2 (DKK2), human; also called hDKK2-eGFP
How did the Kd [13] turn out when B3 was run?
The Kd was 0.26 ± 0.04 nM.
